{"source": "patent US20230212587A1", "about": "“Mutant Hydroxyphenylpyruvate Dioxygenase Polypeptide, Encoding Gene Thereof and Use Therefor” (Beijing Dabeinong Biotechnology Co., Ltd., priority 2019, published 2023)", "molecules": {"B1": {"name": "N3HPPDm-F372V: Burkholderia sp. N3 HPPD mutant F372V, SEQ ID NO: 393 (protein)", "chain": "MQIPNWENPVGTDGFEFIEYTAPDPKALGQLFERMGFTAIARHRHKDVTVYRQGDINFIINAEPHSFAQRFARLHGPSICAIAFRVQDAAKAYQHALELGAWGFDNKTGPMELNIPAIKGIGDSLIYFVDRWRGKNGAQPGAIGDISIYDVDFEPIAGANPNPAGHGLTYIDHLTHNVHRGRMQEWAEFYERLFNFREVRYFDIEGKVTGVKSKAMTSPCGKIRIPINEEGSDTAGQIQEYLDAYHGEGIQHIALGTNDIYGAVDGLRGKEVKLLDTIDTYYELVDRRVPDHGESLDELKKRKILIDGARDDLLLQIVTENQIGPIFFEIIQRKGNQGFGEGNFKALFESIELDQIRRGVVQDKA", "modifications": "N3HPPDm-F372V Amino Acid Sequence"}, "B2": {"name": "N4HPPDm-F372V: Burkholderia sp. N4 HPPD mutant F372V, SEQ ID NO: 395 (protein)", "chain": "MQIPNWENPVGTDGFEFIEYTAPDPKALGQLFERMGFTAIARHRHKDVTVYRQGDINFIINAEPDSFAQRFARLHGPSICAIAFRVQDAAKAYQHALELGAWGFDNKTGPMELNIPAIKGIGDSLIYFVDRWRGKNGAQPGAIGDISIYDVDFEPIAGATPNPAGHGLTYIDHLTHNVHRGRMQEWAEFYERLFNFREVRYFDIEGKVTGVKSKAMTSPCGKIRIPINEEGSDTAGQIQEYLDAYHGEGIQHIALGTSDIYGAVDGLRGKEVKLLDTIDTYYELVDRRVPDHGESLDELKKRKILIDGARDDLLLQIVTENQIGPIFFEIIQRKGNQGFGEGTFKALFESIELDQIRRGVVQDKA", "modifications": "N4HPPDm-F372V Amino Acid Sequence"}, "B3": {"name": "N1HPPDm-F372V: Sphingobium sp. N1 HPPD mutant F372V, SEQ ID NO: 389 (protein)", "chain": "MAADSENPLGLHGFAFAEFTSPDPAAMARQFEQLGFVPAARRKDRGLTLYRQGRIAFILNAGEGEQASAFRAAHGPSANGMAFNVADAKAAHRHAIQSGATDADTAQSALPGTYAIEGIGDSLLYLVDSDPFADWDEVPGWREASAERGVGLDLLDHLTHNVRRGQMRVWSEFYATLFGFEEQKFFDIKGQATGLFSQAMIAPDHEIRIPLNESQDDNSQIEEFIREYNGEGIQHLALTTPDIYSTVEKLRANGVRLQDTIDTYYDLVDERVPGHGEDLARLRKNRILIDGDVHDEGLLLQIVTETMFGPIFFEIIQRKGNEGFGNGNFQVLYESIELDQIRRGVVTVDA", "modifications": "N1HPPDm-F372V Amino Acid Sequence"}, "B4": {"name": "N5HPPDm-F372V: Sphingobium sp. N5 HPPD mutant F372V, SEQ ID NO: 397 (protein)", "chain": "MAADSENPLGLHGFAFAEFTSPDPAAMARQFEQLGFVPAARRKDRGLTLYRQGRIAFILNAGEGEQASAFRAAHGPSANGMAFNVADAKAAHRHAIQSGATDADTAQSALPGTYAIEGIGDSLLYLVDSDPFADWDEVPGWREASAERGVGLDLLDHLTHNVRRGQMRVWSEFYATLFGFEEQKFFDIKGQATGLFSQAMIAPDHEIRIPLNESQDDNSQIEEFIREYNGEGIQHLALTTPDIYSTVEKLRANGVRLQDTIDTYYDLVDERVPGHGEDLARLRKNRILIDGDVHDEGLLLQIVTETMFGPIFFEIIQRKGNEGFGNGNFQVLFESIELDQIRRGVVTVDA", "modifications": "N5HPPDm-F372V Amino Acid Sequence"}, "B5": {"name": "ZmHPPDm-F372V: Zea mays HPPD mutant F372V, SEQ ID NO: 347 (protein)", "chain": "MPPTPTAAAAGAAVAAASAAEQAAFRLVGHRNFVRFNPRSDRFHTLAFHHVELWCADAASAAGRFSFGLGAPLAARSDLSTGNSAHASLLLRSGSLSFLFTAPYAHGADAATAALPSFSAAAARRFAADHGLAVRAVALRVADAEEAFRTSVAAGARPAFGPVDLGRGFRLAEVELYGDVVLRYVSYPDGAAGEPFLPGFEGVASPGAADYGLSRFDHIVGNVPELAPAAAYFAGFTGFHEFAEFTTEDVGTAESGLNSMVLANNSENVLLPLNEPVHGTKRRSQIQTFLDHHGGPGVQHMALASDDVLRTLREMQARSAMGGFEFMAPPTSDYYDGVRRRAGDVLTEAQIKECQELGVLVDRDDQGVLLQIVPKPVGDRPTLFLEIIQRIGCMERDEKGQEYQKGGCGGFGKGNFSQLFKSIEDYEKSLEAMQAAAAATAQGS", "modifications": "ZmHPPDm-F372V Amino Acid Sequence"}, "B6": {"name": "CyHPPDm-F372V: Cyanobacteria HPPD mutant F372V, SEQ ID NO: 387 (protein)", "chain": "MEFDYLHLYVDDYQSAHRCYQRQWGFTCVNKIITDQGITGIYQQGQILLLISASESSLSRYADYLQKHPPGVGEVAWQVANWQKIQHQLSELQIETTPVIHPLTKAEGLTFLLWGDVHHSIYPVRSELNQNKTLHGVGLTTIDHVVLNIAADQFTQASQWYQQVFGWSVQQSFTVNTPHSGLYSEALASANGKVQFNLNCPTNNSSQIQTFLANNHGAGIQHVAFSTTSITRTVAHLRERGVNFLKIPTGYYQQQRNSSYFNYASLDWDTLQCLEILLDDQDNTGERLLLQIVSQPCYGVGTLFWEIIERRHRAKGFGQGNFQALYEAVETLEKQLEVP", "modifications": "CyHPPDm-F372V Amino Acid Sequence"}, "B7": {"name": "GsHPPDm-F372V: Gossypium hirsutum HPPD mutant F372V, SEQ ID NO: 351 (protein)", "chain": "MVQTNQSGSGNDFKLVGFSNFVRSNPKSDRFTVKRFHHIEFWCTDATNVARRFSWGLGMQFVAKSDLSTGNLTHASYLLRSRDLNFLFTAPYSPSIAVAQNLSPQSTASIPSFDHSLCRSFAATHGLGVRAIAIEVDDAETAFTTSVTHGALPFCPPTPLGDVATIAEVKLYGDVVLRYVSYTTTINSDHDFLPGFEKIEDTLSYPLDYGLRRLDHAVGNVPELGPAVSYVKSFTGFHEFAEFTAEDVGTSESGLNSVVLANNEEMVLLPMNEPVFGTKRKSQIQTYLEHNEGAGVQHLALVSEDIFKTLREMRKRSFVGGFEFMPSPPPTYYKKLKQRAGDILSDEQIKECEELGILVDRDDQGTLLQIVTKPVGDRPTIFIEIIQRIGCMVKDEEGKQYQKGGCGGFGKGNFSELFKSIEEYEKSLEAKQSQNP", "modifications": "GsHPPDm-F372V Amino Acid Sequence"}, "B8": {"name": "AhHPPDm-F372V: Arachis hypogaea HPPD mutant F372V, SEQ ID NO: 385 (protein)", "chain": "MATAYTYAHAVTYCNSQHNPPIIPILSTNQHPPRVTLPSSIPHFISTITTFNLKHFPSHSLHTVMVTQTQQNAPSSSPELGFKLVGFKNFVRTNPKSDRFKVIRFHHVEFWCTDATNTASRFSWGLGMPIVAKSDLSTGNAVHASYLLRSGDLNFLFSAPYSASIAGDGASASFPSFSASDCHSFAAKHGLAVRAVAIEVEDASAAFSASVANGAKPVSPAVLLDNSVGFAEVHLYGDVVLRYISYSAPTRESNLNPTLRFLPGFEAVEADSSFPELDYGIRRLDHAVGNVPELAPAVNYLKKFTGFHEFAEFTAEDVGTSESGLNSVVLASNDEMVLLPLNEPVYGTKRKSQIETYLEHNEGAGLQHLALVSEDIFRTLREMRKRSTIGGFQFMPSPPPTYYRNLKKRAGDVLSDEQIKECEELGILVDRDDQGTLLQIVTKPVGDRPTIFIEIIQRIGCMLKDEEGKVYQKGGCGGFGKGNFSELFKSIEEYEKTLESRRTA", "modifications": "AhHPPDm-F372V Amino Acid Sequence"}, "B9": {"name": "N2HPPDm-F372V: Sphingobium sp. N2 HPPD mutant F372V, SEQ ID NO: 391 (protein)", "chain": "MTLFDNPLGLDGFEFVEFSAPAKGMLEPVFAAMGFVMIARHRSKDVQLWRQGGINLIANYEPRSPAAYFAAEHGPSACGMGWRVRNAAKAYELAVERGAEPVDVKTGPMELRLPAIRGIGGSIIYLIDRYEDEDGGLSIYDIDFVYEPGVDRHPEGAGFKIIDHLTHNVYGGRMAHWASFYERVFGFREIRYFDIKGEYTGLTSKAMTAPDGKIRIPLNEEGKAGGGQIEEFLRAYNGEGIQHIAFLCDDLIAAWDKLKALGTPLMTAPPATYYEMLDERLPGHGEPVAELQKRGILLDGSTQQGDPRLLLQIVGQATIGPVFFEFIQRKKDEGFGEGNFTALFESMERDQLRRGTLNAGESA", "modifications": "N2HPPDm-F372V Amino Acid Sequence"}, "B10": {"name": "TaHPPDm-F372V: Triticum aestivum HPPD mutant F372V, SEQ ID NO: 353 (protein)", "chain": "MPPTPTTPAATGAGAAAAVTPEHARPRRMVRFNPRSDRFHTLSFHHVEFWCADAASAAGRFAFALGAPLAARSDLSTGNSVHASQLLRSGNLAFLFTAPYANGCDAATASLPSFSADAARRFSADHGLAVRSIALRVADAAEAFRASVDGGARPAFSPVDLGRGFGFAEVELYGDVVLRFVSHPDGTDVPFLPGFEGVSNPGAVDYGLTRFDHVVGNVPELASAAAYVAGFTGFHEFAEFTTEDVGTAESGLNSMVLANNSEGVLLPLNEPVHGTKRRSQIQTFLEHHGGPGVQHIAVASSDVLRTLREMRARSAMGGFDFLPPPLPKYYEGVRRIAGDVLSEAQIKECQELGVLVDRDDQGVLLQIVTKPVGDRPTLFLEMIQRIGCMEKDERGEEYQKGGCGGFGKGNFSELFKSIEDYEKSLEAKQSAAVQGS", "modifications": "TaHPPDm-F372V Amino Acid Sequence"}}, "system": "Arabidopsis thaliana T1 plants", "test": "Topramezone tolerance of transgenic Arabidopsis thaliana T1 plants (pesticide damage grade by bleached leaf area, score, resistance evaluation)", "type": "in vivo", "conditions": "HPPD F372V mutants, Table 7", "in_short": "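Eighteen days after sowing, wild-type and HPPD-transgenic T1 Arabidopsis receive a topramezone spray at 1×, 2× or 4× field rate (25–100 g ai/ha) or water. Seven days later each plant is graded by its proportion of bleached leaf area.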", "data": [{"molecule": "B1", "values": [{"measurement": "Resistance evaluation", "setting": "topramezone 25 g ai/ha (1x)", "result": "Highly resistant"}, {"measurement": "Resistance evaluation", "setting": "topramezone 100 g ai/ha (4x)", "result": "Highly resistant"}]}, {"molecule": "B2", "values": [{"measurement": "Resistance evaluation", "setting": "topramezone 25 g ai/ha (1x)", "result": "Highly resistant"}, {"measurement": "Resistance evaluation", "setting": "topramezone 100 g ai/ha (4x)", "result": "Highly resistant"}]}, {"molecule": "B3", "values": [{"measurement": "Resistance evaluation", "setting": "topramezone 25 g ai/ha (1x)", "result": "Highly resistant"}, {"measurement": "Resistance evaluation", "setting": "topramezone 100 g ai/ha (4x)", "result": "Highly resistant"}]}, {"molecule": "B4", "values": [{"measurement": "Resistance evaluation", "setting": "topramezone 25 g ai/ha (1x)", "result": "Highly resistant"}, {"measurement": "Resistance evaluation", "setting": "topramezone 100 g ai/ha (4x)", "result": "Highly resistant"}]}, {"molecule": "B5", "values": [{"measurement": "Resistance evaluation", "setting": "topramezone 25 g ai/ha (1x)", "result": "Highly resistant"}, {"measurement": "Resistance evaluation", "setting": "topramezone 100 g ai/ha (4x)", "result": "Poorly resistant"}]}, {"molecule": "B6", "values": [{"measurement": "Resistance evaluation", "setting": "topramezone 25 g ai/ha (1x)", "result": "Poorly resistant"}, {"measurement": "Resistance evaluation", "setting": "topramezone 100 g ai/ha (4x)", "result": "Non-resistant"}]}, {"molecule": "B7", "values": [{"measurement": "Resistance evaluation", "setting": "topramezone 25 g ai/ha (1x)", "result": "Moderately resistant"}, {"measurement": "Resistance evaluation", "setting": "topramezone 100 g ai/ha (4x)", "result": "Non-resistant"}]}, {"molecule": "B8", "values": [{"measurement": "Resistance evaluation", "setting": "topramezone 25 g ai/ha (1x)", "result": "Poorly resistant"}, {"measurement": "Resistance evaluation", "setting": "topramezone 100 g ai/ha (4x)", "result": "Non-resistant"}]}, {"molecule": "B9", "values": [{"measurement": "Resistance evaluation", "setting": "topramezone 25 g ai/ha (1x)", "result": "Highly resistant"}, {"measurement": "Resistance evaluation", "setting": "topramezone 100 g ai/ha (4x)", "result": "Highly resistant"}]}, {"molecule": "B10", "values": [{"measurement": "Resistance evaluation", "setting": "topramezone 25 g ai/ha (1x)", "result": "Highly resistant"}, {"measurement": "Resistance evaluation", "setting": "topramezone 100 g ai/ha (4x)", "result": "Moderately resistant"}]}]}
